Laboratory results from patent US20080312152A1, “Glycosylated Probnp” (priority 2005, published 2008).
“Also recorded” adds a separate entry of the source.

Key:
[1] = BNP as active hormone; cited from earlier work
GC-A receptor [2] = target: T1, GC-A receptor (Homo sapiens, UniProt P16066); experiment: Cyclic GMP release from cells expressing the human GC-A receptor; format: cell-based; conditions: vs hBNP
T1 sequence (P16066 33-1061): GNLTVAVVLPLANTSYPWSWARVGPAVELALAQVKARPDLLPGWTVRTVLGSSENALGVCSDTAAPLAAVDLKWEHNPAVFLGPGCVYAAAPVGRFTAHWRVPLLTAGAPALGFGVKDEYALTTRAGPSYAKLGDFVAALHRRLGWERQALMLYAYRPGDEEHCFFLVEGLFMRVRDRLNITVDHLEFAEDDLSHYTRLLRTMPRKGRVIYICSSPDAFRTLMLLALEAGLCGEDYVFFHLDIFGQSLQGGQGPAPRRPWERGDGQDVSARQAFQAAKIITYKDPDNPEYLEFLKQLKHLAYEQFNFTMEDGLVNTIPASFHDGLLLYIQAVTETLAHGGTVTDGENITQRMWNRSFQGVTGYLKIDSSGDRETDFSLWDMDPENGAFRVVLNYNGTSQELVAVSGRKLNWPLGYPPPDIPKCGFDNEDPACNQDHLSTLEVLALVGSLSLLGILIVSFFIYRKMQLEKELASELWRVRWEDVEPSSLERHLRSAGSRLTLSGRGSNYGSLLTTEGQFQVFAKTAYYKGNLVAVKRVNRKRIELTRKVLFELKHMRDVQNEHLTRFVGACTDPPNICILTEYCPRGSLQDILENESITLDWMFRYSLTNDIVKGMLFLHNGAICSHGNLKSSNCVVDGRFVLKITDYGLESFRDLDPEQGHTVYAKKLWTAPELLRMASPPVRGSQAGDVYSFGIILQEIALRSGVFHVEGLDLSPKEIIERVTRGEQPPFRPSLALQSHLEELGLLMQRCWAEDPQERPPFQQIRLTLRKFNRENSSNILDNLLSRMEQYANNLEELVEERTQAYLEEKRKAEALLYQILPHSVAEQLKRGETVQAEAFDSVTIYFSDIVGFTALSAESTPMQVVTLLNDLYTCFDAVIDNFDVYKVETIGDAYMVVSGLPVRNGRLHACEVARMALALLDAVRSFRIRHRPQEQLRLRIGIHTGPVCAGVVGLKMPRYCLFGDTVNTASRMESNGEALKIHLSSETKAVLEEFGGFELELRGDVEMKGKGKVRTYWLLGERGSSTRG
Experimental: Pursuant to the present invention, the effects of hBNP, unglycosylated proBNP, and O-link glycosylated proBNP on cyclic GMP release from cells expressing the human GC-A receptor were determined.

NPR-A receptor = target: T2, NPR-A receptor (Homo sapiens, UniProt P16066); experiment: NPR-A activation in human aorta endothelial cells (FIG. 8); format: cell-based
T2 construct: endogenous in cells; host or cells: human aorta endothelial cells
T2 sequence (P16066 33-1061): T1 sequence (P16066 33-1061)
From the text: The graph provides a direct activity comparison of hBNP relative to proBNP.
With respect to proBNP and BNP, total “Natriuretic Activity” in a blood sample is defined by the cumulative activity of proBNP and hBNP. When measuring against this receptor however it should be appreciated that the activity of other relevant natriuretic peptides, such as ANP and proANP can and should also be taken into consideration.

[3] = Pharmacokinetics after i.v. bolus in cynomolgus monkeys (FIGS. 9, 10); format: in vivo, cynomolgus monkey; conditions: for circulating (plasma) half-life compared to hBNP: i.v., male Cyno monkeys
From the text: Six adult male cynomolgus monkeys (5-6 kg) from the same colony were randomly selected for this study. In the morning of the experiment day, each monkey was quickly anesthetized by inhalation of 5% isoflurance/95% oxygen. Once the animal was unconscious, the isoflurance was reduced to 1.5% and a sterile catheter was inserted into the urinary bladder. Another catheter was connected to a cephalic vein in the right or left arm of the monkey for compound delivery. The anesthesia was discontinued. The conscious monkey was seated in a restraining chair and allowed to stabilize for 1 hour. The conscious monkey received two bolus doses (1 nmol/kg and 3 nmol/kg) of each human BNP analog in 1 ml of saline via cephalic vein injection followed by a flush with 3 ml of saline. One hour of washing-out period was required between the two administrations. Two ml of blood were drawn into a EDTA tube containing 150 kallikrein-inactivating units aprotonin via a cephalic vein in the another arm of the monkey at the following 8 time points: baseline (within 2 min prior to dosing), 2, 5, 10, 15, 30, 60 and 120 min. The collected samples were kept on ice prior to centrifugation at 4° C. The plasma from each time point was aliquoted to 4 Eppendorff tubes with approximately […]. For urine collection, the bladder was emptied and flushed with 5 ml of sterile water. The urine was collected to a 15 ml regular polypropylene tube in every 20 min at the following time points: −60, −40, −20, 0, 20, 40, 60, 80, 100 and 120 min. Weighing of tube was required before and after collection. The urine sample from each time point was aliquoted to 4 Eppendorf tubes with […]. All plasma and urine samples were kept at −80° C. and delivered on dry ice. Material supply: […] of hBNP were required for 8 cynos with the body weight of 6 kg at the doses of 1 nmol/kg and 3 nmol/kg, respectively. The material for each dose was weighed to a 15 ml sterile tube and dissolved in 8 ml of sterile saline prior to injection. Approximately 1 ml of the material at each dose was injected to each animal. The injection volume (ml) of the material to each animal was equal to animal body weight (kg) divided by six.

cGMP = cGMP levels in plasma and urine after i.v. bolus in cynomolgus monkeys; format: in vivo, cynomolgus monkey
From the text: Six adult male cynomolgus monkeys (5-6 kg) from the same colony were randomly selected for this study. In the morning of the experiment day, each monkey was quickly anesthetized by inhalation of 5% isoflurance/95% oxygen. Once the animal was unconscious, the isoflurance was reduced to 1.5% and a sterile catheter was inserted into the urinary bladder. Another catheter was connected to a cephalic vein in the right or left arm of the monkey for compound delivery. The anesthesia was discontinued. The conscious monkey was seated in a restraining chair and allowed to stabilize for 1 hour. The conscious monkey received two bolus doses (1 nmol/kg and 3 nmol/kg) of each human BNP analog in 1 ml of saline via cephalic vein injection followed by a flush with 3 ml of saline. One hour of washing-out period was required between the two administrations. Two ml of blood were drawn into a EDTA tube containing 150 kallikrein-inactivating units aprotonin via a cephalic vein in the another arm of the monkey at the following 8 time points: baseline (within 2 min prior to dosing), 2, 5, 10, 15, 30, 60 and 120 min. The collected samples were kept on ice prior to centrifugation at 4° C. The plasma from each time point was aliquoted to 4 Eppendorff tubes with approximately […]. For urine collection, the bladder was emptied and flushed with 5 ml of sterile water. […]

GC-A receptor [4] = target: T1, GC-A receptor; experiment: Competitive binding to GC-A receptor (FIG. 7); conditions: glycosylated recombinant human proBNP vs hBNP
From the text: FIG. 7 is a graph showing competitive binding of glycosylated recombinant human proBNP to GC-A receptor relative to hBNP.

Compound | half-life [1] | inducing cellular cyclic GMP release (receptor activation) (GC-A receptor [2]) | potency in cyclic GMP release assay (GC-A receptor [2]) | activity against the NPR-A receptor (NPR-A receptor) | potency on NPR-A activation compared to hBNP (NPR-A receptor) | PK profile compared to BNP ([3]; conscious restrained cynomolgus monkeys, i.v. bolus) | metabolism in the blood ([3]; cynomolgus monkeys) | circulating (plasma) half-life compared to hBNP [3] | circulating (plasma) half-life compared to hBNP ([3]; listed as glycosylated proBNP) | effects on cGMP levels in plasma compared to BNP (cGMP; plasma) | effects on cGMP levels in urine compared to BNP (cGMP; urine) | competitive binding to GC-A receptor relative to hBNP (GC-A receptor [4])
CC[C@H](C)[C@@H]1NC(=O)[C@H](CCCNC(=N)N)NC(=O)[C@H](CC(=O)O)NC(=O)[C@H](CCSC)NC(=O)[C@H](CCCCN)NC(=O)[C@H](CCCNC(=N)N)NC(=O)CNC(=O)[C@H](Cc2ccccc2)NC(=O)[C@@H](NC(=O)CNC(=O)[C@H](CO)NC(=O)CNC(=O)[C@H](CCC(N)=O)NC(=O)[C@@H](NC(=O)[C@H](CCSC)NC(=O)[C@H](CCCCN)NC(=O)[C@@H]2CCCN2C(=O)[C@@H](N)CO)C(C)C)CSSC[C@@H](C(=O)N[C@@H](CCCCN)C(=O)N[C@H](C(=O)N[C@@H](CC(C)C)C(=O)N[C@@H](CCCN=C(N)N)C(=O)N[C@@H](CCCN=C(N)N)C(=O)N[C@@H](Cc2cnc[nH]2)C(=O)O)C(C)C)NC(=O)CNC(=O)[C@H](CC(C)C)NC(=O)CNC(=O)[C@H](CO)NC(=O)[C@H](CO)NC(=O)[C@H](CO)NC(=O)[C@H](CO)NC1=O [hBNP] | approximately 20 minutes |  |  |  |  |  |  |  |  |  |  | 
proBNP: 108 amino acid human BNP precursor protein, O-link glycosylated, recombinantly expressed in CHO cells |  | equivalent to hBNP | less potent than hBNP | exhibit activity | lower activity than hBNP; also recorded: reduced potency | extended PK profile | not metabolized in the blood | longer plasma half-life; also recorded: substantial increase in circulating half-life | greater than that of hBNP | reduced effects | reduced effects | less active
